Biological target: recombinant caspase-3 (E. coli KRX lysate, pTS1k:caspase-3(T/S))
Test: cell-based or functional assay

INDUCED luminescence, HisLink purification fraction E1: 2.95e+06
INDUCED luminescence, HisLink purification fraction E2: 4.09e+07
INDUCED luminescence, HisLink purification fraction E3: 3.29e+06
INDUCED luminescence, HisLink purification fraction E4: 216000
INDUCED luminescence, HisLink purification fraction E5: 48100
INDUCED luminescence, HisLink purification sample HSS: 1.29e+07
INDUCED luminescence, HisLink purification sample NSM: 5.82e+06
INDUCED luminescence, HisLink purification sample WASH: 3.71e+06
INDUCED luminescence, purified HQ:CBS:HT immobilised on HaloLink plate: 662000
RESPONSE, HisLink purification fraction E1: 699 fold
RESPONSE, HisLink purification fraction E2: 212 fold
RESPONSE, HisLink purification fraction E3: 178 fold
RESPONSE, HisLink purification fraction E4: 191 fold
RESPONSE, HisLink purification fraction E5: 178 fold
RESPONSE, HisLink purification sample HSS: 43 fold
RESPONSE, HisLink purification sample NSM: 33 fold
RESPONSE, HisLink purification sample WASH: 479 fold
RESPONSE, purified HQ:CBS:HT immobilised on HaloLink plate: 96 fold
Substance: HQ:CBS:HT (5x HQ tag:CBS:HaloTag)
